Results published in article PMC3796550, “Phosphorylation of FOXP3 by LCK Downregulates MMP9 Expression and Represses Cell Invasion” (PLoS ONE, 2013).

B1: MBP-FOXP3-Full (natural protein, human, UniProt Q9BZS1 1-431, looked up)
chain: MPNPRPGKPSAPSLALGPSPGASPSWRAAPKASDLLGARGPGGTFQGRDLRGGAHASSSSLNPMPPSQLQLPTLPLVMVAPSGARLGPLPHLQALLQDRPHFMHQLSTVDAHARTPVLQVHPLESPAMISLTPPTTATGVFSLKARPGLPPGINVASLEWVSREPALLCTFPNPSAPRKDSTLSAVPQSSYPLLANGVCKWPGCEKVFEEPEDFLKHCQADHLLDEKGRAQCLLQREMVQSLEQQLVLEKEKLSAMQAHLAGKMALTKASSVASSDKGSCCIVAAGSQGPVVPAWSGPREAPDSLFAVRRHLWGSHGNSTFPEFLHNMDYFKFHNMRPPFTYATLIRWAILEAPEKQRTLNEIYHWFTRMFAFFRNHPATWKNAIRHNLSLHKCFVRVESEKGAVWTVDELEFRKKRSQRPSRCSNPTPGP
notes: Forkhead box P3 (FOXP3), human, full length, amino acids 1-431; Cloned into pMAL-c2 (BamHI/SalI); also called MBP-FOXP3 WT
B2: MBP-FOXP3 ΔFKH (domain or fragment, human, UniProt Q9BZS1 1-332, looked up)
chain: MPNPRPGKPSAPSLALGPSPGASPSWRAAPKASDLLGARGPGGTFQGRDLRGGAHASSSSLNPMPPSQLQLPTLPLVMVAPSGARLGPLPHLQALLQDRPHFMHQLSTVDAHARTPVLQVHPLESPAMISLTPPTTATGVFSLKARPGLPPGINVASLEWVSREPALLCTFPNPSAPRKDSTLSAVPQSSYPLLANGVCKWPGCEKVFEEPEDFLKHCQADHLLDEKGRAQCLLQREMVQSLEQQLVLEKEKLSAMQAHLAGKMALTKASSVASSDKGSCCIVAAGSQGPVVPAWSGPREAPDSLFAVRRHLWGSHGNSTFPEFLHNMDYFK
notes: Forkhead box P3 (FOXP3), human, fragment with a truncated forkhead domain, amino acids 1-332; Cloned into pMAL-c2; this vector is known to place MBP at the N-terminus (surmised)

Molecular target: T1, His-LCK (human, UniProt P06239 1-509)
T1 construct: Lymphocyte-specific protein tyrosine kinase (LCK), human, full length; Cloned into pET-32a (BamHI/XhoI); also called Recombinant His-tagged LCK
Experiment: pull-down; MBP fusion proteins bound to amylose resin, His-LCK incubated with 50 μL beads in 20 mM HEPES pH 7.4, 0.5% NP-40, 100 mM NaCl for 2 h at 4 °C; eluted with 10 mM maltose; immunoblot with anti-His-Tag and anti-MBP
Conditions: both partners purified

T1 sequence (P06239 whole entry): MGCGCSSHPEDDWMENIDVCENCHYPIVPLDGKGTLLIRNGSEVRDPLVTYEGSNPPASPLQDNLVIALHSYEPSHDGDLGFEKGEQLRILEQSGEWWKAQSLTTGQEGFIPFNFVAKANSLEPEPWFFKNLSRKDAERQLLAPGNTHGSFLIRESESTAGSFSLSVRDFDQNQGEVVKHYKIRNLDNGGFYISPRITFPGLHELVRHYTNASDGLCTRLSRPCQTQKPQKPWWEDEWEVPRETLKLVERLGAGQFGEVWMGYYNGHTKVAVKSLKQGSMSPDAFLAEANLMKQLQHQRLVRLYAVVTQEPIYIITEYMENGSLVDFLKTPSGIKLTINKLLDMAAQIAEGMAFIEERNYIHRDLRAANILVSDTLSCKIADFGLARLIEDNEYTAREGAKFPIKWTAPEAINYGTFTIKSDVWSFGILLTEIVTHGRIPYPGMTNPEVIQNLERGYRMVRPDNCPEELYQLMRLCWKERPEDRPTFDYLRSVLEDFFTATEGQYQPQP

| Binder | binding result |
| --- | --- |
| B1 | binds |
| B2 | binds |
